The text below walks through data of the supplement of paper PMC5998384.

Data set [1] has as its system HeLa Kyoto. The data set can be described thus: thermal stability score vs G1/S (z-score of summed log2 fold changes over temperatures); higher = more thermally stable than in G1/S.
Data set [2] concerns HeLa Kyoto. The data set can be described thus: solubility change mitosis vs G1/S (difference of NP-40 vs SDS log2 ratios) (log2 ratio difference); higher = more soluble in mitosis.
The test system of data set [3] is HeLa Kyoto. Put plainly: melting temperature (median over replicates), in situ; higher = more thermally stable.
Data set [4] deals with HeLa Kyoto. Put plainly: solubility in G1/S (NP-40 vs SDS abundance) (log2 ratio); higher = more soluble. The note with it: cell cycle stage: G1/S.
Setting [5] is: cell cycle stage: early G1 (4.5 h after nocodazole release).
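Wherever melting temperature (median over replicates), in situ is given: HeLa Kyoto cells synchronized by double thymidine or nocodazole block, proteins quantified by TMT10plex mass spectrometry, three independent biological replicates.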
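Wherever solubility change mitosis vs G1/S (difference of NP-40 vs SDS log2 ratios) is given: synchronized HeLa Kyoto cells (double thymidine block for G1/S, nocodazole release for mitosis), protein amounts in NP-40 versus SDS lysates quantified by mass spectrometry, three biological replicates.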
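Wherever solubility in G1/S (NP-40 vs SDS abundance) is given: HeLa Kyoto cells arrested at G1/S by double thymidine block, proteins quantified by TMT10plex mass spectrometry in mild NP-40 versus SDS extracts, three biological replicates.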
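Wherever thermal stability score vs G1/S (z-score of summed log2 fold changes over temperatures) is given: synchronized HeLa Kyoto cells, proteins quantified by TMT10plex mass spectrometry, three biological replicates, mitosis taken 0.5 h after nocodazole release, G1/S directly after double thymidine block.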

On to “MKSLSLLLAVALGLATAVSAGPAVIECWFVEDASGKGLAKRPGALLLRQGPGEPPPRPDLDPELYLSVHDPAGALQAAFRRYPRGAPAPHCEMSRFVPLPASAKWASGLTPAQNCPRALDGAWLMVSISSPVLSLSSLLRPQPEPQQEPVLITMATVVLTVLTHTPAPRVRLGQDALLDLSFAYMPPTSEAASSLAPGPPPFGLEWRRQHLGKGHLLLAATPGLNGQMPAAQEGAVAFAAWDDDEPWGPWTGNGTFWLPTVQPFQEGTYLATIHLPYLQGQVTLELAVYKPPKVSLMPATLARAAPGEAPPELLCLVSHFYPSGGLEVEWELRGGPGGRSQKAEGQRWLSALRHHSDGSVSLSGHLQPPPVTTEQHGARYACRIHHPSLPASGRSAEVTLEVAGLSGPSLEDSVGLFLSAFLLLGLFKALGWAAVYLSTCKDSKKKAE [TAPBP]”, for which the thermal stability score is 0.903 in the data set on HeLa Kyoto [1] (setting [5]) and 1.98 in the data set with HeLa Kyoto [1] (cell cycle stage: mitosis). Besides, the “solubility change mitosis (log2)” value in the data set on HeLa Kyoto [2] was 0.000151. For the same sequence, the melting temperature in the data set with HeLa Kyoto [3] (cell cycle stage: G1/S) amounted to 52.5 °C; in the data set on HeLa Kyoto [3] (cell cycle stage: mitosis) it was 53 °C. Besides, the “solubility in G1/S (log2)” value in the data set with HeLa Kyoto [4] was 0.297.
For “MKVARFQKIPNGENETMIPVLTSKKASELPVSEVASILQADLQNGLNKCEVSHRRAFHGWNEFDISEDEPLWKKYISQFKNPLIMLLLASAVISVLMHQFDDAVSITVAILIVVTVAFVQEYRSEKSLEELSKLVPPECHCVREGKLEHTLARDLVPGDTVCLSVGDRVPADLRLFEAVDLSIDESSLTGETTPCSKVTAPQPAATNGDLASRSNIAFMGTLVRCGKAKGVVIGTGENSEFGEVFKMMQAEEAPKTPLQKSMDLLGKQLSFYSFGIIGIIMLVGWLLGKDILEMFTISVSLAVAAIPEGLPIVVTVTLALGVMRMVKKRAIVKKLPIVETLGCCNVICSDKTGTLTKNEMTVTHIFTSDGLHAEVTGVGYNQFGEVIVDGDVVHGFYNPAVSRIVEAGCVCNDAVIRNNTLMGKPTEGALIALAMKMGLDGLQQDYIRKAEYPFSSEQKWMAVKCVHRTQQDRPEICFMKGAYEQVIKYCTTYQSKGQTLTLTQQQRDVYQQEKARMGSAGLRVLALASGPELGQLTFLGLVGIIDPPRTGVKEAVTTLIASGVSIKMITGDSQETAVAIASRLGLYSKTSQSVSGEEIDAMDVQQLSQIVPKVAVFYRASPRHKMKIIKSLQKNGSVVAMTGDGVNDAVALKAADIGVAMGQTGTDVCKEAADMILVDDDFQTIMSAIEEGKGIYNNIKNFVRFQLSTSIAALTLISLATLMNFPNPLNAMQILWINIIMDGPPAQSLGVEPVDKDVIRKPPRNWKDSILTKNLILKILVSSIIIVCGTLFVFWRELRDNVITPRDTTMTFTCFVFFDMFNALSSRSQTKSVFEIGLCSNRMFCYAVLGSIMGQLLVIYFPPLQKVFQTESLSILDLLFLLGLTSSVCIVAEIIKKVERSREKIQKHVSSTSSSFLEV [ATP2C1]”, the thermal stability score in the data set on HeLa Kyoto [1] (setting [5]) is -1.8; with HeLa Kyoto [1] (cell cycle stage: mitosis) it was -1.34. Besides, in the data set with HeLa Kyoto [2], the “solubility change mitosis (log2)” value was -0.0972. Besides, the melting temperature with HeLa Kyoto [3] (cell cycle stage: G1/S) was found to be 54.1 °C; in the data set on HeLa Kyoto [3] (cell cycle stage: mitosis) it was 54.2 °C. Further, in the data set on HeLa Kyoto [4], the “solubility in G1/S (log2)” value was -0.143.
Turning to “MKVTLSALDTSESSFTPLVVIELAQDVKEETKEWLKNRIIAKKKDGGAQLLFRPLLNKYEQETLENQNLYLVGASKIRMLLGAEAVGLVKECNDNTMRAFTYRTRQNFKGFDDNNDDFLTMAECQFIIKHELENLRAKDEKMIPGYPQAKLYPGKSLLRRLLTSGIVIQVFPLHDSEALKKLEDTWYTRFALKYQPIDSIRGYFGETIALYFGFLEYFTFALIPMAVIGLPYYLFVWEDYDKYVIFASFNLIWSTVILELWKRGCANMTYRWGTLLMKRKFEEPRPGFHGVLGINSITGKEEPLYPSYKRQLRIYLVSLPFVCLCLYFSLYVMMIYFDMEVWALGLHENSGSEWTSVLLYVPSIIYAIVIEIMNRLYRYAAEFLTSWENHRLESAYQNHLILKVLVFNFLNCFASLFYIAFVLKDMKLLRQSLATLLITSQILNQIMESFLPYWLQRKHGVRVKRKVQALKADIDATLYEQVILEKEMGTYLGTFDDYLELFLQFGYVSLFSCVYPLAAAFAVLNNFTEVNSDALKMCRVFKRPFSEPSANIGVWQLAFETMSVISVVTNCALIGMSPQVNAVFPESKADLILIVVAVEHALLALKFILAFAIPDKPRHIQMKLARLEFESLEALKQQQMKLVTENLKEEPMESGKEKAT [ANO10]”, the thermal stability score in the data set on HeLa Kyoto [1] (setting [5]) was -0.93; in the data set with HeLa Kyoto [1] (cell cycle stage: mitosis), -1.12. In addition, the “solubility change mitosis (log2)” value in the data set on HeLa Kyoto [2] was -0.214. In addition, the melting temperature with HeLa Kyoto [3] (cell cycle stage: G1/S) came to 53.2 °C; in the data set on HeLa Kyoto [3] (cell cycle stage: mitosis) it was 51.9 °C. Also, the “solubility in G1/S (log2)” value in the data set with HeLa Kyoto [4] is -0.181.
Consider “MLAARLVCLRTLPSRVFHPAFTKASPVVKNSITKNQWLLTPSREYATKTRIGIRRGRTGQELKEAALEPSMEKIFKIDQMGRWFVAGGAAVGLGALCYYGLGLSNEIGAIEKAVIWPQYVKDRIHSTYMYLAGSIGLTALSAIAISRTPVLMNFMMRGSWVTIGVTFAAMVGAGMLVRSIPYDQSPGPKHLAWLLHSGVMGAVVAPLTILGGPLLIRAAWYTAGIVGGLSTVAMCAPSEKFLNMGAPLGVGLGLVFVSSLGSMFLPPTTVAGATLYSVAMYGGLVLFSMFLLYDTQKVIKRAEVSPMYGVQKYDPINSMLSIYMDTLNIFMRVATMLATGGNRKK [GHITM]”, for which the figures for the thermal stability score in the data set with HeLa Kyoto [1] (setting [5]) and in the data set on HeLa Kyoto [1] (cell cycle stage: mitosis) were -2.96 and -4.77, respectively. In addition, the “solubility change mitosis (log2)” value in the data set with HeLa Kyoto [2] was found to be 0.0227. Further, the melting temperature in the data set with HeLa Kyoto [3] (cell cycle stage: G1/S) worked out at 54.7 °C; with HeLa Kyoto [3] (cell cycle stage: mitosis), 55.1 °C. Also, the “solubility in G1/S (log2)” value in the data set on HeLa Kyoto [4] was -0.101.
In the case of “MLARAARGTGALLLRGSLLASGRAPRRASSGLPRNTVVLFVPQQEAWVVERMGRFHRILEPGLNILIPVLDRIRYVQSLKEIVINVPEQSAVTLDNVTLQIDGVLYLRIMDPYKASYGVEDPEYAVTQLAQTTMRSELGKLSLDKVFRERESLNASIVDAINQAADCWGIRCLRYEIKDIHVPPRVKESMQMQVEAERRKRATVLESEGTRESAINVAEGKKQAQILASEAEKAEQINQAAGEASAVLAKAKAKAEAIRILAAALTQHNGDAAASLTVAEQYVSAFSKLAKDSNTILLPSNPGDVTSMVAQAMGVYGALTKAPVPGTPDSLSSGSSRDVQGTDASLDEELDRVKMS [STOML2]”, the values for the thermal stability score with HeLa Kyoto [1] (setting [5]) and with HeLa Kyoto [1] (cell cycle stage: mitosis) were -3.41 and -3.22, respectively. In addition, the “solubility change mitosis (log2)” value in the data set with HeLa Kyoto [2] came to 0.0559. For the same sequence, the melting temperature in the data set on HeLa Kyoto [3] (cell cycle stage: G1/S) was determined as 56.9 °C; in the data set on HeLa Kyoto [3] (cell cycle stage: mitosis) it was 59.3 °C. The “solubility in G1/S (log2)” value in the data set on HeLa Kyoto [4] amounted to 0.262.
